# Bridges are numbered along the chain shown (N, C = ends). [ ]: non-standard residue; d: D form.
# Key:
# Experiment in all cases: cell-based or functional assay
# [1] = biological target: HIV-1 JRFL envelope glycoprotein gp41 (N-trimer of the prehairpin intermediate) (HIV-1 strain JRFL)
# [2] = biological target: HIV-1 isolate IIIB gp41 (envelope subtype B) (HIV-1 isolate IIIB)
# [3] = biological target: HIV-1 isolate Ba-L gp41 (envelope subtype B) (HIV-1 isolate Ba-L)
# [4] = biological target: HIV-1 isolate JR-CSF gp41 (envelope subtype B) (HIV-1 isolate JR-CSF)
# [5] = biological target: HIV-1 isolate 92UG029 gp41 (envelope subtype A) (HIV-1 isolate 92UG029)
# [6] = biological target: HIV-1 isolate 92UG037 gp41 (envelope subtype A) (HIV-1 isolate 92UG037)
# [7] = biological target: HIV-1 isolate 93IN101 gp41 (envelope subtype C) (HIV-1 isolate 93IN101)
# [8] = biological target: HIV-1 isolate 92BR025 gp41 (envelope subtype C) (HIV-1 isolate 92BR025)
# [9] = biological target: HIV-1 isolate 92UG001 gp41 (envelope subtype D) (HIV-1 isolate 92UG001)
# [10] = biological target: HIV-1 isolate 92UG046 gp41 (envelope subtype D) (HIV-1 isolate 92UG046)
# [11] = biological target: HIV-1 isolate CMU02 gp41 (envelope subtype AE) (HIV-1 isolate CMU02)
# [12] = biological target: HIV-1 isolate 93TH073 gp41 (envelope subtype E) (HIV-1 isolate 93TH073)
# [13] = biological target: HIV-1 isolate CMU06 gp41 (envelope subtype E) (HIV-1 isolate CMU06)
# [14] = biological target: HIV-1 isolate 93BR019 gp41 (envelope subtype BF) (HIV-1 isolate 93BR019)
# [15] = biological target: HIV-1 isolate 93BR020 gp41 (envelope subtype F) (HIV-1 isolate 93BR020)
# [16] = biological target: HIV-1 isolate 93BR029 gp41 (envelope subtype F) (HIV-1 isolate 93BR029)
# [17] = biological target: HIV-1 isolate G3 gp41 (envelope subtype G) (HIV-1 isolate G3)
# [18] = biological target: HIV-1 isolate RU570 gp41 (envelope subtype G) (HIV-1 isolate RU570)
binder,measurement,setting,value
"Ac-[dH][dP][dC][dD][dY][dP][dE][dW][dQ][dW][dL][dC][dE][dL]G[dK]-NH2 (disulfide 3-12 (inferred); also: trimer, crosslinking not given here) [PIE12 trimer (Table 3)]","IC50, replication competent virus on PBMC target cells",[1],0.26 nM
same,"IC50, replication competent virus on PBMC target cells",[2],0.78 nM
same,"IC50, replication competent virus on PBMC target cells",[3],0.27 nM
same,"IC50, replication competent virus on PBMC target cells",[4],0.08 nM
same,"IC50, replication competent virus on PBMC target cells",[5],0.69 nM
same,"IC50, replication competent virus on PBMC target cells",[6],0.21 nM
same,"IC50, replication competent virus on PBMC target cells",[7],0.38 nM
same,"IC50, replication competent virus on PBMC target cells",[8],5.19 nM
same,"IC50, replication competent virus on PBMC target cells",[9],4.45 nM
same,"IC50, replication competent virus on PBMC target cells",[10],1.2 nM
same,"IC50, replication competent virus on PBMC target cells",[11],0.35 nM
same,"IC50, replication competent virus on PBMC target cells",[12],0.84 nM
same,"IC50, replication competent virus on PBMC target cells",[13],0.38 nM
same,"IC50, replication competent virus on PBMC target cells",[14],4.72 nM
same,"IC50, replication competent virus on PBMC target cells",[15],0.37 nM
same,"IC50, replication competent virus on PBMC target cells",[16],0.79 nM
same,"IC50, replication competent virus on PBMC target cells",[17],1.21 nM
same,"IC50, replication competent virus on PBMC target cells",[18],0.36 nM
